How the values were obtained:
[1] = target: the molecule itself; assay: crystal structure
[2] = target: the molecule itself; assay: pulsed dipolar ESR
[3] = target: the molecule itself; assay: SAXS

B1: Aer2 173–289 K176A E275A (domain or fragment)
chain: ARIASALDNVSANVMIADNDLNIIYMNRTVSEMLGRAEADIRKQLPNFDAGRLMGANIDVFHKNPAHQRHLLANLTGVHKAELNLGGRRFSLDVVPVFNDANARLGSAVQWTDRTEE
binding result [1]: binds

B2: Aer2 1–402 S183C, MTSSL spin-labeled (domain or fragment)
chain: MGLFNAHAVAQQRADRIATLLQSFADGQLDTAVGEAPAPGYERLYDSLRALQRQLREQRAELQQVESLEAGLAEMSRQHEAGWIDQTIPAERLEGRAARIAKGVNELVAAHIAVKMKVVSVVTAYGQGNFEPLMDRLPGKKAQITEAIDGVRERLRGAAEATSAQLATAAYNARIKSALDNVCANVMIADNDLNIIYMNRTVSEMLGRAEADIRKQLPNFDAGRLMGANIDVFHKNPAHQRHLLANLTGVHKAELNLGGRRFSLDVVPVFNDANERLGSAVQWTDRTEEHRAEQEVSQLVQAAAAGDFSKRVEEAGKEGFFLRLAKDLNSLVDTADRGLRDVSRMLGALAQGDLTQRIEADYQGTFGQLKDFSNDTAQSLSRMLGQIREAADTINTAASEIA
modifications: MTSSL nitroxide spin label on C183
binding result [2]: binds

B3: Aer2 1–402 (domain or fragment)
chain: MGLFNAHAVAQQRADRIATLLQSFADGQLDTAVGEAPAPGYERLYDSLRALQRQLREQRAELQQVESLEAGLAEMSRQHEAGWIDQTIPAERLEGRAARIAKGVNELVAAHIAVKMKVVSVVTAYGQGNFEPLMDRLPGKKAQITEAIDGVRERLRGAAEATSAQLATAAYNARIKSALDNVSANVMIADNDLNIIYMNRTVSEMLGRAEADIRKQLPNFDAGRLMGANIDVFHKNPAHQRHLLANLTGVHKAELNLGGRRFSLDVVPVFNDANERLGSAVQWTDRTEEHRAEQEVSQLVQAAAAGDFSKRVEEAGKEGFFLRLAKDLNSLVDTADRGLRDVSRMLGALAQGDLTQRIEADYQGTFGQLKDFSNDTAQSLSRMLGQIREAADTINTAASEIA
binding result [3]: binds

B4: Aer2 1–317 (domain or fragment)
chain: MGLFNAHAVAQQRADRIATLLQSFADGQLDTAVGEAPAPGYERLYDSLRALQRQLREQRAELQQVESLEAGLAEMSRQHEAGWIDQTIPAERLEGRAARIAKGVNELVAAHIAVKMKVVSVVTAYGQGNFEPLMDRLPGKKAQITEAIDGVRERLRGAAEATSAQLATAAYNARIKSALDNVSANVMIADNDLNIIYMNRTVSEMLGRAEADIRKQLPNFDAGRLMGANIDVFHKNPAHQRHLLANLTGVHKAELNLGGRRFSLDVVPVFNDANERLGSAVQWTDRTEEHRAEQEVSQLVQAAAAGDFSKRVEEAGK
binding result [3]: binds

— paper PMC3577987 (Journal of molecular biology, 2012)
